# B1: RNA1 (ssRNA)
# RNA: CAUUAUCGGAUAGUGGAACCUAGCUUCGACUAUCGGAUAAUC
# Target: T1, hex-ΔN61-NS3 (cc-hex fused NS3) (Human norovirus GI, UniProt Q83883 460-761)
# T1 sequence: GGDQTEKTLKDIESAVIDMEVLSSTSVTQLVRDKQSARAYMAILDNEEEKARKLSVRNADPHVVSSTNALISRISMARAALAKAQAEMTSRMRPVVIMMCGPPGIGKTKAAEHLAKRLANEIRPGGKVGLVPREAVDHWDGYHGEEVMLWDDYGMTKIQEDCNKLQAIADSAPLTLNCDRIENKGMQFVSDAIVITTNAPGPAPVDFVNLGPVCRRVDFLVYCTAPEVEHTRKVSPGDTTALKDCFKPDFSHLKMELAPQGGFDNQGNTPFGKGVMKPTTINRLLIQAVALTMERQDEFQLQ
# Test: EMSA; 20 µM protein, 0.2 nM RNA, 5 mM Mg2+; EMSA: 25 mM HEPES pH 8.0, 30 mM NaCl, 5 mM MgCl2, 2 mM DTT, RNasin, 5% glycerol, 37 °C 1 h, 6% native PAGE; tweezers buffer not in material
# Conditions: protein: recombinant; tags: N-terminal 32-residue cc-hex replaces residues 1-61; chain copies: 6; label: 5' HEX; single strand, 42 nt
binder,measurement,value
B1,binding result,binds

# Source: PMC13683342, “Integrative structure of norovirus NS3 suggests a role in RNA transport”
